In patent publication CN114409797A (HEFEN TIANKPORT IMMUNOLOGICAL DRUG CO LTD, dated 2022):

B1: CD3×PD1mut双特异抗体 (bispecific antibody)
chain 1: EVQLLESGGGLVQPGGSLKLSCAASGFTFNTYAMNWVRQAPGKGLEWVARIRSKYNNYATYYADSVKDRFTISRDDSKNTAYLQMNNLKTEDTAVYYCVRHGNFGNSYVSWFAYWGQGTLVTVSSGGGGSGGGGSGGGGSELVVTQEPSLTVSPGGTVTLTCRSSTGAVTTSNYANWVQQKPGQAPRGLIGGTNKRAPGTPARFSGSLLGGKAALTLSGVQPEDEAEYYCALWYSNLWVFGGGTKLTVLGGGGSPKSCDKTHTCPPCPAPELLGGPSVFLFPPKPKDTLMISRTPEVTCVVVAVSHEDPEVKFNWYVDGVEVHNAKTKPREEQYASTYRVVSVLTVLHQDWLNGKEYKCKVSNKALPAPIEKTISKAKGQPREPQVYTLPPSREEMTKNQVSLWCLVKGFYPSDIAVEWESNGQPENNYKTTPPVLDSDGSFFLYSKLTVDKSRWQQGNVFSCSVMHEALHNHYTQKSLSLSPGK
chain 2: not shown
notes: Two-chain knob-into-hole heterodimer with human IgG1 Fc
B2: CD3×PD1双特异抗体 (bispecific antibody)
chain 1: EVQLLESGGGLVQPGGSLKLSCAASGFTFNTYAMNWVRQAPGKGLEWVARIRSKYNNYATYYADSVKDRFTISRDDSKNTAYLQMNNLKTEDTAVYYCVRHGNFGNSYVSWFAYWGQGTLVTVSSGGGGSGGGGSGGGGSELVVTQEPSLTVSPGGTVTLTCRSSTGAVTTSNYANWVQQKPGQAPRGLIGGTNKRAPGTPARFSGSLLGGKAALTLSGVQPEDEAEYYCALWYSNLWVFGGGTKLTVLGGGGSPKSCDKTHTCPPCPAPELLGGPSVFLFPPKPKDTLMISRTPEVTCVVVAVSHEDPEVKFNWYVDGVEVHNAKTKPREEQYASTYRVVSVLTVLHQDWLNGKEYKCKVSNKALPAPIEKTISKAKGQPREPQVYTLPPSREEMTKNQVSLWCLVKGFYPSDIAVEWESNGQPENNYKTTPPVLDSDGSFFLYSKLTVDKSRWQQGNVFSCSVMHEALHNHYTQKSLSLSPGK
chain 2: not shown
notes: as for B1

Target: PD-L1蛋白 (expressed on CHO-K1-PD-L1 cells) (Homo sapiens (Human), UniProt Q9NZQ7 19-290)
Sequence (Q9NZQ7 19-290 limits assumed): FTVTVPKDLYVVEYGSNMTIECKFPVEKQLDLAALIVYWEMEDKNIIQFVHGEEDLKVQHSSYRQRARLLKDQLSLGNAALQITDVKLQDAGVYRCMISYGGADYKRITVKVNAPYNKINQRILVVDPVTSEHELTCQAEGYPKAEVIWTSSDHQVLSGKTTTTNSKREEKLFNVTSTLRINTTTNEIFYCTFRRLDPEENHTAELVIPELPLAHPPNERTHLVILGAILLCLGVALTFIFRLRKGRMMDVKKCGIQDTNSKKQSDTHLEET
Assay: flow cytometry on CHO-K1-PD-L1 cells, Alexa-647 anti-human Fc secondary antibody

Binder	binding result
B1	binds
B2	binds
